Experimental data as given in the NTF2 design screens of Basanta et al. (2020).

assay: protease stability score; higher = more stable; yeast display proteolysis, trypsin and chymotrypsin;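 further: log10 excess protease needed over predicted unfolded state with 0 meaning unfolded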

Sequence | protease stability score
DRNRRAEEFARTQLKAFKHGDEKLLRDLFDPNVHISVGDQTVHGRDEVARQEKDQATQVDHATRKIDRVEMNGDQVEVRARIRLNFNGQDRSTDVVYHATDDNGHIVVKSVRQG | 0.017
DRQASEVARKILQAIRKGDPETMKELVDPNVNVTVGEKTFKGREEAARHFVERQKQIRVQVDSMEVSAHNGKVDARMKVLYNHNGRPVKMDVVVHFDMKNGKARRAEYRVDEEQRRRLET | 0.082
DRQNKAQDLAEELRRAFHTNNEDQFKKLADKNARATVGEHTFHGSDEIRKVLKELVDNVDHLRVDIHSVSVHNGQINIDMKLILDHNGRKETQEVHIRAQDHNGQNKVRNITFG | -0.154
DRQVVRDAQTIFRLEKHGNENDVRRMADPNVDVNIGDKEIRGREEFAKSMRRKRDEIRVSLEIKNWTTTGDKANIDAKMQEEHNGRPSEKRVHIIVTATNGRMKSAHYHNTK | -0.006
DRRDLQLVERVLRALQTGDEDKVMENLDPNARVEYGDKEYHGREQLHEQIERDHRNMRFSIDVKRVDLHGDRAHFDATVTMNINGKPFEDRFHIDVVARNGRIKHLSMKMDPDRVKEVES | -0.157
DRREAHKRAQEMVDNFRDNDKDRIVELADKDVHARIGDKRLHGREELATFLVELARRADRVEVKSIHVQGEQIEMDMQMTVDGRERTFTLRMTYHNGKLKHLEIDPDDLRKIES | 0.987
DRRETAKEVMKKISDILKENDENRLEDLMDPNAKVNVGDKRVHGRREAANQMVEEHTRYDHMDMDIRRIDVDGDKIIVIFTVTLTNNGKTDTKNVVIYFTVHNGRVQITRIRHK | -0.157
DRRQEARDIQHDQNRALKHGDQESAQRLFDENARIKIGDRQWHGSDDVMTEVREQHKKVDSIRIHVVSIDVRGDQYDINVQYNLHYDGDNDTFRATQRLKKHNGSVRVVDQHEQ | -0.276
DRSQVESAMRKALHNDPREHEKMFDKDARIQIGDTTFTGQETVLRVIRQLLTKADHIQINDYEISGNKVRIDVQVEVNGRRVRVELDFTVSNGRIKHATWKARSEEELHRIKENLR | 0.239
DRTAEKVLRQFLHAIRDNNPEQMVDLMDPNVTLEIGDKEITGRESAARTAKTRNDEQRMSLSDYRIDVKGDRITADIDQYNEHNGKPRRHQYILDVNIHNGKIKSLVYESDK | -0.029
DRTEILKHMFDDLAQVRRDGDPEKLNELMDEDVKARYGDKEYHGREDVARNIHRLASQADHVHIQLDRMSVDNGKARLEADVRIEHNGKVDEVRVEIRADVDNGRVNLREMIYR | 0.839
DRTKTAKKVWDDFRSIMENNDPKEAEKLFDENAKADLGSKQVHGREQMVEMLRELAERVDHVEIRMKTVTDDNGQLNIEAEVRAEINGKQHTWRNQLNVVQQGDKRRIVSAKYG | -0.42
DSDAARELVKALNTGNEEELKHMVDPNARARVGDKRLHGRDELFRFWHKLKRHVDHRRVNKVEIHGEKAHVDVQLNVDGRNIRVNIVMEAHNGRVKEFTIEFRDRDARKEFRNQVD | 1.16
DSDAARILVEFWTALQKGDHDRLKQNMDPNAKMKIGDHTLHGREQIAEHATKLKREMRIDIRLKSFDDDGDHAILKFEMRVDVNGKPFSMDVTVNVKAHNGHLVKVNFRIPEKDLQRLNS | 0.633
DSDEIRKFFQQLHTNDEKKLRRNFDKDARFEVGDKDYHGQENAQEAMAQIFQRADHVTYKTVKVEGDKVDMNLQIQVNGKQFDLRLHAKFDNGRLKEASLHVTSEEQHTEVLEMLS | 0.643
DSDEVRKFNEKVKTGNPKHLQDMFDENAKVQIGNKDFRGREHVQTVIDKIERDVDHKEIKRMEVKGDHFEIDAIYNINGHNIRMIIKIQVRNGKIQNMTVEFTNEEQQEIFEENVQ | 0.423
DSDKIDNVVKTIMHDLRKGNPERVMKNADKDVKIVVGDKRYHGRETLETLMKEMVDQADHIQFHSVNIRGEKVVVVAVLQHNGVNVDVQFNMEIDNGRATKVELKVRNPEQQKKFDS | 0.583
DSDKLRKSAKKFLDLQRTGNEDELKKMIDPNAKAVVGDKEYHGSTEIAHALARMRREVDHITLDRFQFKGNRLKANMTYQHNGRRDRFVVTVTMHNGRVSHITFKST | 0.38
DSDLVRKMKKFEENRRTGNEHEVDKMIDPNAKLQVGDKTIHGRERQRDYMRELKNSARLDLKIDRVHDQPGRVVATFILKVNINGRPDTIRVKLVIQWHNGEIQRAELRVPEEWMDRFKQ | 0.642
DSDQSKREMDKFLEMVSTGDPDEVNRLLDKDAHAHVGDQTYHGREEISHMWKELREKIDHLEVHDYKVNGNKLEVDMHATINGQNVVFTVVAVLRNGHFESVEVQYRSEEEEEKVKR | 0.452
DSEAAKRAETFIRNLVQGNEDELRDMADKDVNFQVGDKTVHGREQWQEEVSRTEKEARVEMRVDDYRDEPGTVKLNAKVTIEYNGQPFTVNLHVEIHFKNGKMQRAVFEIDPEVQKEVES | 0.692
DSEAEDLLRRILDAIRTNNREELHRQIDPNAHFEIGDREFKGMTQWATEIVRQAKEIRVDQSFHSISIRNGKLSARVEQVNETNGKPHSRQFKLRMKWHDGQVKFLSMEDDG | 0.362
DSEAHELADTIMHALKHNNPDQLKEQFDPNVRVDIGNNRYHGREQFATEVIRTLREWRVEYKSFDQRNSGDKVDLRIRFVVNVNGRPHRYSVTVHLNFKDGRVKKMKVEMDPDQERKQTQ | 0.914
DSEAQKIAEKLHEAWNTNNPNEAQHLMDPNAHVRVGDKEIDGMDQYVREMQRLLDKLRLEVKDWDVRAHNGNVTLRANARVDVNGQPQEYTYVIVMQVKNGRVKELHLHIDEEELRTLES | 1.02
DSEDLVRKFITEWEQAVQQGDEKQLQELMDEDAHVSVGDTKLHGREDIARELAEQIRHADHVQFRIESLSVHGDHVNLNQKVRYKHNGKTDSSRYRLQAIAHGDKVTLKSFHDG | -0.28

Sequence | protease stability score
DSEEAKKADEVVQTNDEDRLRDLLDEDARIIIGEFTFHGRHKAEEAVKRFQDAVDHIEIEDYDVQGNEITVVFTVSFNGKKMRFKASFHLRNGRLKHMSMTFTDPDQEREMSNLLR | 0.56
DSEEEKTISEQLRTNNPDDAEKLVDENARIVVGDKVIDGRKDAHRFFKRLTEQIDHLQVDSLTVKNGRFSLDFRFNVNGRDLRMVMKVVVDNGKIQYMQLDARDHDIQEHMRDALR | 0.967
DSEERHDFAHKVMEVFQQGDPDQMRDMADPNVRLHVGEKNVTGRDRVRTALTEFRQRVDHVQVDHVHVTGDKIVIHATVEINGRRRRVIIVARVRNGRIHEIEVDLK | 1.61
DSEERKTVARELNKVLKENDEEKFKRLADENVKLHYGDKEFHGRERAEQVLREWKKRIDHLEVNHVNNTGDRIVIHATVNVNGVNVHLEFNARLDNGHVTSVRLQYRDEEDRKRLES | 0.814
DSEKDKDWLRKLQSAVERNDPDSVMRLLDPNAEANYGDQTLHGREHIRKMFSELLKHADHVEVTDVRAHNGRLQLDVIMTINGRKSRYDLQFQFSNGRVKKVSVHSR | 1.26
DSEKIKDVARQLVRQIEENNPDEIVKLLDPNARADYGDKRISGHEKIADELRKFHERADRIRVETVEVHNGRIVIDLHVNINGRMQRFHVFADLHNGKIKRIEFQTG | 1.54
DSEKMHEINKALKTNDPDKLEQLMDKDVRAKVGDKTFHGREEVVKMWRDLYKQADHVNVDRVDVQGEKIDATVRADFNGTSVDYKVHISASNGRIKHITVTVTDEERHRQLQSVLG | 1.31
DSEKNEALQRAVEIWNSNDPDKLKKQFDPNARHTYGDTVVHGRENLARRLEQLKRESRLTFQVTHLDVHNGKVTADVTIVEEHNGKPDTKRMDVQANVQNGRFKSVYVHESS | -0.003
DSEKYLKDLNSNLLRILQTNDEKKLRDLVDKDVKITVGDKSYHGREEFAKVLRTLLNEHDKWRVHYQSIHQHNGKLRAVIDLKAENNGQTLSRNLDITAEERNGEVHVKHAQIG | 1.08
DSENVKVVREFIKAVERNDHQKLRDLVDPNATAQIGDKEYTGMDDIVTRIIETIRQLRFKIKLHHVDNHNGVVNVKAVFTFEHNGKPDKREVDIRVEITNGKVTNFQYQEHK | 2.08
DSERAKEVVKEFEHNDRQKFRDLFDEDASVTIGNRTYHGRHEVERALKRHIDRVDHVKINSVQIRGERIHMEAVFNINGQEFTLQMTLQLSNGKVKTWVLRVTDPDLKRKLHKNME | 1.15
DSERAKQWTHFLRLMETGNEEDLSKMADPNARFQVGDETYKGKDDVTKWARTVKTHMRVTYKRLNNDDEEGHARIEADYQYDHNGKPEEDKNSLVLSFHNGQIKEVVIHHVS | 0.164
DSERASEAARTFVDAMRTNDEKQFNELFDPNARVRIGDEKVHGMDRITDQLHNLNKKADHNEVLDYKVNGNTAVVHFQVDHNGQTRRYRIVITMHNGRVHEMQVNTK | 0.458
DSERRQREAENFFKNLQTGNKHEFEKLFPPDVRAQVGEKEIHGREEAQKWWKNIHDRADHMQIDHFDVDGNKITFDMRMNVDGHEIRMRLTIRLENGQYRSLTAEVRDEDAERRLKS | 0.672
DSEVLDVLTSIVKNIHNGNPDEVMKQMDPNARVQVGDDRFHGDRKQQEDVQTLLDTMEVNIHITSVDFDGDKVTVRFKVEYNVNGRPFRIEAEMQAVAKNGRIQDLKVRIDKQFLSELKS | 0.858
DSHAENLLQQVLKALETGDQKRVMELFDPNAKVRYGDKTLHGREEIRKYVKKLKDEMQIRIEVRSVTVQGNKITADVVVRADVDGKPVEMRVRIHVEFENGKIHSLSVDMDPEQVKELEK | 1.56
DSHAHNVADEVMRALQENDEDSLRQLLDPNVEFHIGDTTYHGREQVRHWITRLKEQMRVKFDLKDLKVQGDTVHIKLRLEQEHNGQPRQHNVVINVKIDNGRVKKISFQHTK | 1.64
DSHEKAEKWARKLNQVWEHNDPDRAMEMVDPNVRVDIGDRRYHGREDWRKMVEHLNKRVDHMEFKFDQVDAHNGKIRITVTFTYTIDGQERTERLVFHVDNVNGRLVAQKAHDG | 0.343
DSHLEHKAHEWVKAVNENDPDRLVQLMDKDVKIDVGDKKFSGRENYATEVKKEQDEARVEWKDVKLSADNGKLELQADVVRRHNGQPQRWKVENIYTDKNGVAKYLTNKSKP | -0.423
DSHLQEEVERFWKQLEHGNRQNLRELADEEVNFVYGDKTIHGREKAATHMSKRVRKIQIEWKTYSAEVHNGKLDATAEWRADHNGKPKDVKMTFYVKVHNGRIKEVNIQEEK | 0.178
DSHQQAREMVRELQRILETNDTDKWRHMFDPNARAQYGDKEYHGRDQVTHYLQEQTQRVDSVRVNIDEVDVSGDKLRVVFTLVRVHNGEEKSDTYVFVLRFHGDHARIESFRRK | 0.687
DSHTIAKELMKTWQDAARNNDEDKLKELIDKDASASVGDKTFHGRESFARHVQEQARRADHLEVRLESMSINGDHIHLQFVVRYNVNGKESSDRYVVIFHKVNGKFRVRQIKQR | 0.721
DSKELARRFHTELLENLRHNDSERLRRLLDEDARVHVGDKEVHGREQFADEQTKIMEHFDRVELRIREVTIEEGRVKVLIHFDADNNGEKHTDNSEVTFDNQGDKLTNKTQHES | -0.13
DSKEVRKAEELAKAVRTGDPDTIVKLMDPNARLKVGDREYRGQKDVQKFLKRVLDEIRVKLDVQDIKAHNGKVKVRATVVQRKNGTPHHRTMRMWVQMNNGHVEELSVSNDS | 0.401
DSKQRAKEFVKEFQRVLQKGDPDQAEKMADKDVRINVGDKTYHGREEMWKMAQEWQRKYDEMSITVSRIQTRPGRIVANAKLKLDNNGTTDDTHLVIVVREHNGHYRAVHIRLG | 0.992
